The Kd is the concentration at which binding is half-saturated. A higher Kd goes with a looser complex.

These results are taken from patent US20130259876A1 (Regeneron, published 2013).

Sequences and labels used below:
B1: H4H2542P (antibody, V domains shown)
VH: EVQLVESGGGLVQPGRSLRLSCAASGFTFDDYAMHWVRQGPGKGLEWVSGISWNGRTMDHADSVKGRFTISRDNAKNSLYLQMNSLRNDDTGVYFCAKEGIPVAGTYFHFYGMDVWGQGTTVTVSS
VL: EIVMTQSPATLSVSPGERVTLSCRASQSIGNYLAWYQQKPGQAPRLLIYGTSTRATGIPARFSGSGSGTEFTLTFSSLQSEDFAVYYCQQYNHWPLTFGGGTKVEIK
B2: H4H2562S (antibody, V domains shown)
VH: EVQLVESGGGLVQPGGSLRLSCAASGFTFTNYAMTWVRQAPGKGLEWVSTISGTGVDITYYADSVKGRFTISRDNSKNTLYLQMNSLRAEDTAVYYCAKGGLRWFPFDYWGQGTTVTVSS
VL: not shown
B3: H4H2560P (antibody, V domains shown)
VH: QVQLVQSGAEVKKPGASVKVSCKASGYTFTGYFIHWVRQAPGQGLEWVGWINPTSGGTNYAQKFQGRVTMTRDTSISTAYMEMNSLRSDDTAVYYCARKAGYTSTWFDYWGQGTTVTVSS
VL: DIVMTQSPDSLTVSLGERATINCKSSQSVLYSSKNKNYLAWYQQKPGQPPNLLVYWASTRESGVPDRFSGSGSGTDFTLTISSLQAEDVAVYYCQQYYSMITFGQGTRLEIK
B4: H4H2526P (antibody, V domains shown)
VH: QVQLVESGGGVVQPGRSLRLSCAASGFTFSRFGMDWVRQAPGKGLEWVAVISYDGKNKLYADSVKGRFTISRDNSKNTLYMQMNSLRAEDTAVYYCAKEGDNWNFVGDSWGQGTLVTVSS
VL: DIQMTQSPSSVSASVGDRVTITCRASQDISARLAWYQQKPGKAPKLLIYAASSLQSGVPSRFSGSGSGTDFTLTISSLEPEDFATYYCQQADSFPYTLGQGTKLEIK
B5: H4H2528P (antibody, V domains shown)
VH: B4 VH with M81L
VL: B4 VL with D28G, D70Y, S77N, E79Q, D92N
B6: H4H2499N (antibody, V domains shown)
VH: QVQLVESGGGLVKPGGSLRLSCAASGFTFSDYYMSWIRQAPGKGLEWVSYISTSGSTIYYPDSVKGRFTISRDNAKNSLNLQMNSLRAEDTAVYYCLLHYYYGMDVWGQGTTVTVSS
VL: EIVLTQSPATLSLSPGERAPLSCRASQSVSSYLAWYQQKPGQPPRLLIYDASNRATGIPARFSGSGSGTDFTLTISSLEPEDFAVYYCQQRSNWPWTFGQGTKVEIK
B7: H4H2534S (antibody, V domains shown)
VH: EVQLVESGPGLVKPAQTLSLTCTVSGGSINSGGNYWSWIRQHPGKGLEWIGYIYYSGNTYYNPSLKSRVTISVDMSKNQFSLKLRSVTAADTAVYFCARDPRGITGTHHFDCWGQGTLVTVSS
VL: EIVLTQSPGTLSLSPGERATLSCRTSQSVSSRYLAWYQQKPGQAPRLLIYDASSRATGIPDRFSGSGSGTDFTLTISRLEPEDFAVYYCQQFGPSLFTFGPGTKVDIK
B8: H4H2532P (antibody, V domains shown)
VH: QVQLVQSGTEVKKPGAAVRVSCKASGYTFTDYHMHWVRQAPGQGLEWMGWINPNSGGTNSAQKFQGRVTMTRDTSISTAYMELNGLRSDDTAVYYCARKAGYTSSWFDYWGQGTTVTVSS
VL: not shown
B9: H4H2538P (antibody, V domains shown)
VH: B8 VH with T9A, A17S, R19K, H33Y, M48I, T58S, S60F, N84S, G85R, T115L
VL: B3 VL with T12A, S33F, K34N, A40S, N51K, V54I, V89A
B10: H4H2555P (antibody, V domains shown)
VH: B8 VH with T9A, R19K, Y102F, Y109H
VL: not shown
B11: H4H2559P (antibody, V domains shown)
VH: B3 VH with G31D, I34L, T54N, Y60F, E82D, M83L, N84S, S85R, T105S, T115L
VL: B3 VL with T12A, V29I, S33F, K34N, P46I, N51M, V54I, S83R, M100S
B12: H4H2490N (antibody, V domains shown)
VH: QVQLVQSGADVKWPGASVKVSCRASGYTFTGYYMHWVRQAPGQGLEWMGWINPNNGGTNYAQKFQGRVTMTRDTSITTVYMELSSLISDDTAVYYCARGEDLELRNYYYYGMDVWGQGTSVTVSS
VL: DIQMTQSPSSLSASVGDRVTITCRASQSISSYLNWYQQKPGKAPKLLIYAASNLQSGVPSRFSGSGFGTDFTLTISSLQSEDFATYYCQQTYSTRTFGRGTKVEIN
B13: H4H2477N (antibody, V domains shown)
VH: QVQLQQWGAGLLKPSETLSLTCAVYGGSFSDYYWSWIRQPPGKGLEWIGEINHSGNTNYNPSLKSRVTISVDTSKNQFSLKLRSVTAADMAVYYCARIQLWLRGYDYYGMDVWGQGTTVTVSS
VL: DIQMTQSPSSLSASVGDRVTITCRASQGIRNDLGWYQQKPGKAPKRLIYAASSLQGGVPSRFSGSGSGTEFSLTISSLQPEDFASYYCLQHNTYPWTFGQGTKVEIK

Residue numbers refer to the chain shown, from its start.

In one assay the target is T1, scHLA-B27-mmH (engineered HLA-B*27 ectodomain in-line fusion protein) (human (HLA-B*2705, beta-2 …)).
T1 construct: also called soluble HLA-B*27 fusion protein
Briefly: SPR (Biacore), mAb captured, 37 C, HBST pH 7.4. A general note: In SPR one partner is held on a chip, and binding of the other changes the refractive index at the surface.
B1 came in with a Kd of 170 nM and a t1/2 of 2 min.

The molecule B2 displayed a Kd of 7.63 nM and a t1/2 of 4 min.

As for B3, the Kd amounted to 1.96 nM and the t1/2 was found to be 4 min.

As for B4, the Kd was 3.91 nM and the t1/2 came to 37 min.

B5 showed a Kd of 20.4 nM and a t1/2 of 17 min.

The molecule B6 showed a Kd of 28 nM and a t1/2 of 4 min.

B7 gave a Kd of 8.7 nM and a t1/2 of 3 min.

B8: the Kd is 0.837 nM and the t1/2 stood at 9 min.

B9 had a Kd of 1.13 nM and a t1/2 of 8 min.

B10 displayed a Kd of 1.02 nM and a t1/2 of 7 min.

The molecule B11 had a Kd of 1.18 nM and a t1/2 of 8 min.

In another assay the target is T1, scHLA-B27-mmH (engineered HLA-B*27 …). The experiment in a line: SPR (Biacore), 25 C, PBS pH 7.2.
For the molecule B1, binding was put at a Kd of 52.1 nM.

B2: the affinity, expressed as Kd, was 30.5 nM.

Turning to B3, the equilibrium dissociation constant (Kd) is 1.25 nM.

In turn, B4 returned a Kd of 0.76 nM.

Molecule B5 showed a Kd of 2.71 nM.

Take B7: binding was characterised by a dissociation constant (Kd) of 2.13 nM.

Regarding B8, the Kd was determined as 0.457 nM.

Molecule B9 yielded a Kd of 0.37 nM.

The molecule B10 displayed a Kd of 0.491 nM.

For the molecule B11, binding was put at a Kd of 0.434 nM.

A further assay shares this target. The experiment in a line: SPR (Biacore), 25 C, PBS pH 5.75.
B1 returned a Kd of 488 nM.

B2: the Kd came to 95 nM.

In turn, B3 came in with a Kd of 7.7 nM.

In turn, B4 registered an equilibrium dissociation constant (Kd) of 0.739 nM.

For B5, the Kd worked out at 2.74 nM.

The molecule B7 showed a Kd of 53.4 nM.

With B8, the Kd was determined as 0.717 nM.

Molecule B9 gave a Kd of 0.641 nM.

In the case of B10, the dissociation constant Kd worked out at 0.855 nM.

For the next assay the target is unchanged. The experiment in a line: SPR (Biacore), mAb captured, 25 C, HBST pH 7.4.
The molecule B12 displayed a Kd of 9.97 nM and a t1/2 of 33 min.

In turn, B1 had a dissociation constant (Kd) of 58 nM and a t1/2 of 2 min.

Regarding B2, the Kd is 10 nM and the t1/2 amounted to 5 min.

In turn, B3 came in with a Kd of 1.47 nM and a t1/2 of 6 min.

For B13, the binding result is “no binding”.

In the case of B4, binding was characterised by a dissociation constant (Kd) of 2.08 nM and the t1/2 came to 96 min.

In the case of B5, the Kd turned out to be 6 nM and the t1/2 was determined as 77 min.

Consider B6, for which the affinity, expressed as Kd, was 21.3 nM and the t1/2 is 7 min.

On to B7, for which the affinity, expressed as Kd, was 5.18 nM and the t1/2 was 6 min.

In the case of B8, binding was characterised by a dissociation constant (Kd) of 0.452 nM and the t1/2 turned out to be 21 min.

The molecule B9 yielded a Kd of 0.604 nM and a t1/2 of 20 min.

In the case of B10, the Kd was 0.521 nM and the t1/2 was determined as 18 min.

B11 displayed a Kd of 0.895 nM and a t1/2 of 19 min.

The target is the same in the next assay. The experiment in a line: SPR (Biacore), mAb captured, 25 C, PBS pH 5.75.
As for B1, the Kd was 488 nM and the t1/2 amounted to 1 min.

Turning to B2, the affinity, expressed as Kd, was 95 nM and the t1/2 was 2 min.

The molecule B3 yielded a Kd of 7.7 nM and a t1/2 of 6 min.

Molecule B4 returned an equilibrium dissociation constant (Kd) of 0.739 nM and a t1/2 of 301 min.

B5 returned a dissociation constant (Kd) of 2.74 nM and a t1/2 of 135 min.

In turn, B7 showed a dissociation constant Kd of 53.4 nM and a t1/2 of 5 min.

The molecule B8 returned a Kd of 0.717 nM and a t1/2 of 36 min.

B9 gave a Kd of 0.641 nM and a t1/2 of 44 min.

In turn, B10 had a Kd of 0.855 nM and a t1/2 of 31 min.

For the molecule B11, the t1/2 came out at 43 min.

Another assay has the same target. Briefly: SPR (Biacore), mAb captured, 25 C, PBS pH 7.2.
On to B1, for which the Kd is 52.1 nM and the t1/2 worked out at 2 min.

B2 gave a Kd of 30.5 nM and a t1/2 of 4 min.

On to B3, for which the Kd came out at 1.25 nM and the t1/2 amounted to 16 min.

B4 yielded a Kd of 0.76 nM and a t1/2 of 348 min.

Regarding B5, the Kd was 2.71 nM and the t1/2 came to 151 min.

In the case of B7, the Kd is 2.13 nM and the t1/2 stood at 16 min.

In turn, B8 registered a Kd of 0.457 nM and a t1/2 of 52 min.

B9 gave a Kd of 0.37 nM and a t1/2 of 69 min.

Molecule B10 had a Kd of 0.491 nM and a t1/2 of 47 min.

B11 gave a Kd of 0.434 nM and a t1/2 of 65 min.
